Reference: patent US20200317768A1 (published 2020)
Substitutions are numbered along the chain they refer to.

T1: cynomolgus monkey FcγRIIa1 extracellular domain, His-tagged (cynomolgus monkey)
T1 construct: also called cyno FcγRIIa1; cynoFcgRIIa1; not shown: C-terminal His-tag
T1 chain: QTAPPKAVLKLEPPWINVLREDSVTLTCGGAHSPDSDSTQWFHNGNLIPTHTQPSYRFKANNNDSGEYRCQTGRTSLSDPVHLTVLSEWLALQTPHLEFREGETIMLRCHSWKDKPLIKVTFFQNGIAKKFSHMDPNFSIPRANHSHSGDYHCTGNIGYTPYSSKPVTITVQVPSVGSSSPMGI

T2: cynomolgus monkey FcγRIIa2 extracellular domain, His-tagged (cynomolgus monkey)
T2 construct: also called cyno FcγRIIa2; cynoFcgRIIa2; not shown: C-terminal His-tag
T2 chain: T1 chain with P95T, T121A, I127K, A128S, K130N, D135N, R142Q

T3: cynomolgus monkey FcγRIIa3 extracellular domain, His-tagged (cynomolgus monkey)
T3 construct: also called cyno FcγRIIa3; cynoFcgRIIa3; not shown: C-terminal His-tag
T3 chain: T1 chain with P95T, T121A, A128S, H133P, D135N

T4: cynomolgus monkey FcγRIIb extracellular domain, His-tagged (cynomolgus monkey)
T4 construct: also called cyno FcγRIIb; cynoFcγRIIb; not shown: C-terminal His-tag
T4 chain: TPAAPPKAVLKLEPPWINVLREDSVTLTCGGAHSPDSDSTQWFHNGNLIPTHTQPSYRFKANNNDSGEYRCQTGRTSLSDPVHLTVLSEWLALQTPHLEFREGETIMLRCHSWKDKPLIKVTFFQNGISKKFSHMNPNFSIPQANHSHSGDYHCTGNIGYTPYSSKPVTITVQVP

T5: cynomolgus monkey FcγRIIIaS extracellular domain, His-tagged (cynomolgus monkey, UniProt Q8SPW2 21-206 at identity 1.00))
T5 construct: also called cyno FcγRIIIaS; cynoFcγRIIIaS; not shown: C-terminal His-tag
T5 chain: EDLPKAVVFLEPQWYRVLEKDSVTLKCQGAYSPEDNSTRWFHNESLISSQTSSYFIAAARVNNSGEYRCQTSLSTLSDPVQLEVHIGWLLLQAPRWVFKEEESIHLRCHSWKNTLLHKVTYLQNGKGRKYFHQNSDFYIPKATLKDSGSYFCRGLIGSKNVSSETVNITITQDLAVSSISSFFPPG

T6: human FcγRIIaH extracellular domain, His-tagged (human, UniProt P12318 34-217)
T6 construct: also called human FcγRIIa (type H); FcgRIIaH; not shown: C-terminal His-tag
T6 sequence: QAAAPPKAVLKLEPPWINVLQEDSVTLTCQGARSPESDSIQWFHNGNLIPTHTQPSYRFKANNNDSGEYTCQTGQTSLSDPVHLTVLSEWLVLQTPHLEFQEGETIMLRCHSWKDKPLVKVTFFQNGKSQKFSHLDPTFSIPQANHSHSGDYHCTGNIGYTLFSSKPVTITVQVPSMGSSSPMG

T7: human FcγRIIaR extracellular domain, His-tagged (human, UniProt P12318 34-217)
T7 construct: also called human FcγRIIa (type R); FcgRIIaR; not shown: C-terminal His-tag
T7 chain: T6 sequence with H134R

T8: human FcγRIIb extracellular domain, His-tagged (human, UniProt P31994 43-217)
T8 construct: also called FcgRIIb (human); not shown: C-terminal His-tag
T8 sequence: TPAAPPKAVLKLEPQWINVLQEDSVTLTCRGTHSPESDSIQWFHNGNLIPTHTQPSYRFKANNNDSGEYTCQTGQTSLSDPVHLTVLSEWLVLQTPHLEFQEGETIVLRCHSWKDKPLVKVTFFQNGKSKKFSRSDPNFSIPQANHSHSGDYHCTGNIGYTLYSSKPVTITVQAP

B1: M103205H795-MY464/M103202L889-SK1 (antibody, human IgG1, kappa)
heavy: QVTLKESGPVLVKPTETLTLTCTVSGIDLSHDDISWVRQAPGKGLEWVGIISYAGSTYYASWAKGRLTISKDTSKNQVVLTMTNMDPVDTATYYCARGVPAYSHGGDLWGQGTLVTVSSASTKGPSVFPLAPSSKSTSGGTAALGCLVKDYFPEPVTVSWNSGALTSGVHTFPAVLQSSGLYSLSSVVTVPSSSLGTQTYICNVNHKPSNTKVDKKVEPKSCDKTHTCPPCPIPELLTGPSVFLFPPKPKDTLMISRTPEVTCVVVDVSDEDPEVKFNWYVDGVEVHNAKTKPREEQYNSTYRVVSVLTVLHQDWLNGKEYKCKVSNKALPKPIEKTISKAKGQPREPQVYTLPPSREEMTKNQVSLTCLVKGFYPSDIAVEWESNGQPENNYKTTPPVLDSDGSFFLYSKLTVDKSRWQQGNVFSCSVMHEALHNHYTQKSLSLSP
light: DIVMTQSPATLSLSPGERATLSCTSSQSVYHANWLSWFQQKPGQPPKLLIYWASTLAYGVPSRFSGSGSGTDFTLTISSLQPEDAATYYCAGGYGGGRYAFGQGTKVEIKRTVAAPSVFIFPPSDEQLKSGTASVVCLLNNFYPREAKVQWKVDNALQSGNSQESVTEQDSKDSTYSLSSTLTLSKADYEKHKVYACEVTHQGLSSPVTKSFNRGEC
notes: copies: 2 + 2
B2: M103205H795-MY474/M103202L889-SK1 (antibody, human IgG1, kappa)
heavy: B1 heavy with I233V
light: B1 light
notes: copies: 2 + 2
B3: M103205H795-MY471/M103202L889-SK1 (antibody, human IgG1, kappa)
heavy: B1 heavy with I233R
light: B1 light
notes: copies: 2 + 2
B4: M103205H795-MY472/M103202L889-SK1 (antibody, human IgG1, kappa)
heavy: B1 heavy with I233S
light: B1 light
notes: copies: 2 + 2
B5: M103205H795-MY466/M103202L889-SK1 (antibody, human IgG1, kappa)
heavy: B1 heavy with I233L
light: B1 light
notes: copies: 2 + 2
B6: M103205H795-MY468/M103202L889-SK1 (antibody, human IgG1, kappa)
heavy: B1 heavy with I233N
light: B1 light
notes: copies: 2 + 2
B7: M103205H795-MY465/M103202L889-SK1 (antibody, human IgG1, kappa)
heavy: B1 heavy with I233K
light: B1 light
notes: copies: 2 + 2
B8: M103205H795-MY470/M103202L889-SK1 (antibody, human IgG1, kappa)
heavy: B1 heavy with I233Q
light: B1 light
notes: copies: 2 + 2
B9: M103205H795-MY467/M103202L889-SK1 (antibody, human IgG1, kappa)
heavy: B1 heavy with I233M
light: B1 light
notes: copies: 2 + 2
B10: M103205H795-MY469/M103202L889-SK1 (antibody, human IgG1, kappa)
heavy: B1 heavy with I233P
light: B1 light
notes: copies: 2 + 2
B11: M103205H795-MY473/M103202L889-SK1 (antibody, human IgG1, kappa)
heavy: B1 heavy with I233T
light: B1 light
notes: copies: 2 + 2

Target: T1, cynomolgus monkey FcγRIIa1 …
Assay: SPR (BIACORE), captured antibody, FcgR as analyte

Row | Kd [µM] | Binder
1 | 1.9 | B1
2 | 2 | B2
3 | 2.6 | B3
4 | 2.4 | B4
5 | 1.9 | B5
6 | 2.8 | B6
7 | 2 | B7
8 | 2.2 | B8
9 | 1.9 | B9
10 | 2.2 | B10
11 | 1.6 | B11

Target: T2, cynomolgus monkey FcγRIIa2 …
Assay: SPR (BIACORE), captured antibody, FcgR as analyte

Row | Kd [µM] | Binder
12 | 1.5 | B1
13 | 1.8 | B2
14 | 2.1 | B3
15 | 2.1 | B4
16 | 1.8 | B5
17 | 2.5 | B6
18 | 2.8 | B7
19 | 1.8 | B8
20 | 1.9 | B9
21 | 2.1 | B10
22 | 2.6 | B11

Target: T3, cynomolgus monkey FcγRIIa3 …
Assay: SPR (BIACORE), captured antibody, FcgR as analyte

Row | Kd [µM] | Binder
23 | 3.9 | B1
24 | 4.8 | B2
25 | 4.5 | B3
26 | 5.1 | B4
27 | 4.4 | B5
28 | 5.2 | B6
29 | 5.2 | B7
30 | 4.9 | B8
31 | 4.7 | B9
32 | 4.9 | B10
33 | 5.5 | B11

Target: T4, cynomolgus monkey FcγRIIb extracellular …
Assay: SPR (BIACORE), captured antibody, FcgR as analyte

Row | Kd [µM] | Binder
34 | 0.5 | B1
35 | 0.5 | B2
36 | 0.7 | B3
37 | 0.66 | B4
38 | 0.51 | B5
39 | 0.65 | B6
40 | 0.63 | B7
41 | 0.55 | B8
42 | 0.51 | B9
43 | 0.61 | B10
44 | 0.58 | B11

Target: T5, cynomolgus monkey FcγRIIIaS …
Assay: SPR (BIACORE), captured antibody, FcgR as analyte

Row | Kd [µM] | Binder
45 | 1.7 | B1
46 | 1.6 | B2
47 | 1.8 | B3
48 | 2.5 | B4
49 | 1.8 | B5
50 | 2.3 | B6
51 | 1.9 | B7
52 | 1.7 | B8
53 | 1.7 | B9
54 | 2.2 | B10
55 | 1.7 | B11

Each binder was assayed against T6, human FcγRIIaH extracellular domain, … (assay: SPR (BIACORE), captured antibody, FcgR as analyte).

Row | Kd [µM] | Binder
56 | 0.17 | B1
57 | 0.17 | B2
58 | 0.23 | B3
59 | 0.25 | B4
60 | 0.17 | B5
61 | 0.28 | B6
62 | 0.25 | B7
63 | 0.22 | B8
64 | 0.18 | B9
65 | 0.2 | B10
66 | 0.22 | B11

Target: T7, human FcγRIIaR extracellular domain, …
Assay: SPR (BIACORE), captured antibody, FcgR as analyte

Row | Kd [µM] | Binder
67 | 0.26 | B1
68 | 0.34 | B2
69 | 0.47 | B3
70 | 0.49 | B4
71 | 0.28 | B5
72 | 0.47 | B6
73 | 0.6 | B7
74 | 0.47 | B8
75 | 0.36 | B9
76 | 0.43 | B10
77 | 0.49 | B11

Each binder was assayed against T8, human FcγRIIb extracellular domain, … (assay: SPR (BIACORE), captured antibody, FcgR as analyte).

Row | Kd [µM] | Binder
78 | 1.6 | B1
79 | 2 | B2
80 | 2.8 | B3
81 | 2.5 | B4
82 | 1.4 | B5
83 | 2.6 | B6
84 | 2.8 | B7
85 | 2.7 | B8
86 | 2 | B9
87 | 2.4 | B10
88 | 2.2 | B11

Each binder was assayed against T9, human FcγRIIIaV extracellular domain, His-tagged (human, UniProt P08637 17-208) (assay: SPR (BIACORE), captured antibody, FcgR as analyte).
T9 construct: also called FcgRIIIaV; not shown: C-terminal His-tag
T9 sequence (P08637 17-208 F176V): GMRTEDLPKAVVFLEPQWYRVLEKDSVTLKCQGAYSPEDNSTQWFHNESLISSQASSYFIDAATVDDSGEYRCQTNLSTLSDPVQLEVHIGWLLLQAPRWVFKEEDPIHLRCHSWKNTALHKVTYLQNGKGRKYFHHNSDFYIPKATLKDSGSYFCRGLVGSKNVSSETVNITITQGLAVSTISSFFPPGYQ

Row | Kd [µM] | Binder
89 | 4.4 | B1
90 | 4.6 | B2
91 | 5.3 | B3
92 | 6.3 | B4
93 | 4.3 | B5
94 | 6.8 | B6
95 | 5.5 | B7
96 | 5.1 | B8
97 | 4.8 | B9
98 | 5.9 | B10
99 | 5.2 | B11

Target: T2, cynomolgus monkey FcγRIIa2 …
Assay: SPR (BIACORE); KD of SG1 divided by KD of variant;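 further: relative to parent M103205H795-SG1 carrying the SG1 human heavy chain constant region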
Protocol: The kinetic analysis of interactions between these antibodies and FcγR was carried out using BIACORE® T200 or BIACORE® 4000 (GE Healthcare). HBS-EP+ (GE Healthcare) was used as the running buffer, and the measurement temperature was set to 25° C. A chip produced by immobilizing Protein A. Protein A/G or mouse anti-human IgG kappa light chain (BD Biosciences) onto a Series S Sensor Chip CM4 or CM5 (GE Healthcare) by the amine-coupling method was used. […] After the measurement, the antibody captured on the chip was washed off by allowing reaction with 10 mM glycine-HCl, pH1.5 and 25 mM NaOH so that the chip was regenerated and used repeatedly. The sensorgrams obtained as measurement results were analyzed by the 1:1 Langmuir binding model using the BIACORE® Evaluation Software to calculate the binding rate constant ka (L/mol/s) and dissociation rate constant kd (l/s), and the dissociation constant KD (mol/L) was calculated from these values. […] Regarding such interactions, KD values were calculated using the following 1:1 binding model described in BIACORE® T100 Software Handbook BR1006-48 Edition AE.

Row | KD fold (SG1 = 1) [fold] | Binder
100 | 3.4 | B1
101 | 2.8 | B2
102 | 2.4 | B3
103 | 2.4 | B4
104 | 2.3 | B5
105 | 2 | B6
106 | 1.3 | B7
107 | 2.8 | B8
108 | 2.7 | B9
109 | 2.4 | B10
110 | 2 | B11
